{
  "source": "paper PMC3726680",
  "origin": "cited, not measured here",
  "molecular_target": "HER2 (Homo sapiens) (UniProt P04626)",
  "data": [
    {"substance": "trastuzumab", "values": [
      {"measurement": "Kd", "result": 0.1, "unit": "nM"}
    ]}
  ]
}
